Experiments:
O=NO = assay: purified protein; details: conditions in supplement only
Br2DNiR = biological target: T1, Br2DNiR (Bradyrhizobium sp. ORS 375, UniProt H0SLX7); assay: X-ray crystal structure (MSOX, nitrite-soaked crystal, DS1 […] Å); type: binding; details: 200 mM NaNO2 soak, pH 5.5, 100 K; side-on at type-2 Cu, full occupancy
T1 construct: gene nirK; two-domain enzyme, recombinant in E. coli with 6xHis tag cleaved by TEV; Cu-loaded T1 and T2 sites; CuNiR homotrimer, site at interface of two monomers
T1 sequence (H0SLX7 25-364): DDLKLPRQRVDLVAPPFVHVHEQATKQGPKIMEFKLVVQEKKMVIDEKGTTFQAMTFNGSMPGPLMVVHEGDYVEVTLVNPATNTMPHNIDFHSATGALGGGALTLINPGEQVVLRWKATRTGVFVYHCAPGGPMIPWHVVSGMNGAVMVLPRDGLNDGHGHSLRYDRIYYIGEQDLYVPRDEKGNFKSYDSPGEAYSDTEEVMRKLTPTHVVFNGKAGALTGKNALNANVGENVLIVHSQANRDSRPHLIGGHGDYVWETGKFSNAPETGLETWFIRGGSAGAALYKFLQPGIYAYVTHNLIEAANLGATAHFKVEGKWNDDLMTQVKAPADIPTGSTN

Row | Compound | Km (O=NO) | kcat (O=NO) | X-ray crystal structure (MSOX, nitrite-soaked crystal, DS1 1.19 Å) (Br2DNiR)
1 | Br2DNiR (Bradyrhizobium sp. ORS 375) | 7.4 ± 1.2 µM | 9 ± 0.5 s⁻¹ | –
2 | O=NO [nitrite] | – | – | full occupancy nitrite is seen bound to fully occupied T2Cu in a “side-on” orientation
